{"source": "patent US11866502B2", "about": "“Anti-FGFR2 antibodies and methods of use thereof” (Regeneron Pharmaceuticals, Inc., priority 2020, dated 2024)", "origin": "cited, not measured here", "key": {"[1]": {"conditions": "minimum tolerated dose below the therapeutic threshold estimated preclinically; trial terminated early; cited from earlier work"}, "xenograft models": {"system": "xenograft models", "conditions": "several xenograft models; cited from earlier work"}}, "data": [{"molecule": "Aprutumab ixodotin: FGFR2 antibody conjugated to auristatin (conjugate, chains of the INN, looked up, auristatin payload conjugate, FGFR2 antibody conjugated to auristatin) VH: EVQLLESGGGLVQPGGSLRLSCAASGFTFSSYAMSWVRQAPGKGLEWVSAISGSGTSTYYADSVKGRFTISRDNSKNTLYLQMNSLRAEDTAVYYCARVRYNWNHGDWFDPWGQGTLVTVSS VL: QSVLTQPPSASGTPGQRVTISCSGSSSNIGNNYVSWYQQLPGTAPKLLIYENYNRPAGVPDRFSGSKSGTSASLAISGLRSEDEADYYCSSWDDSLNYWVFGGGTKLTVL", "values": [{"measurement": "tolerability in clinical testing", "setting": "[1]", "result": "poorly tolerated"}]}, {"molecule": "Aprutumab-TTC: anti-FGFR2 antibody, a chelator moiety covalently conjugated to the antibody, and the alpha particle-emitting radionuclide thorium-227 (conjugate, chains of the INN, looked up, chelator conjugate with thorium-227) VH: EVQLLESGGGLVQPGGSLRLSCAASGFTFSSYAMSWVRQAPGKGLEWVSAISGSGTSTYYADSVKGRFTISRDNSKNTLYLQMNSLRAEDTAVYYCARVRYNWNHGDWFDPWGQGTLVTVSS VL: QSVLTQPPSASGTPGQRVTISCSGSSSNIGNNYVSWYQQLPGTAPKLLIYENYNRPAGVPDRFSGSKSGTSASLAISGLRSEDEADYYCSSWDDSLNYWVFGGGTKLTVL", "values": [{"measurement": "tumor growth in xenograft models", "setting": "xenograft models", "result": "inhibited tumor growth"}]}]}
